How the values were obtained:
E. coli L-ASNase (EcA) = target: T1, E. coli L-ASNase (EcA) (Escherichia coli, UniProt P00805); experiment: continuous coupled NADH assay (L-glutamic dehydrogenase); NMR; assay type: biochemical; details: 5 mM GLN, 10 nM enzyme (spectrophotometric); 0.1 and 2 μM enzyme (NMR)
T1 construct: gene ansB; made in cytosol of E. coli C41(DE3) from His6-SUMO-pET14b, His-SUMO tag cut with SUMO protease, gel filtration; family forms tetramers
T1 sequence (P00805 23-348): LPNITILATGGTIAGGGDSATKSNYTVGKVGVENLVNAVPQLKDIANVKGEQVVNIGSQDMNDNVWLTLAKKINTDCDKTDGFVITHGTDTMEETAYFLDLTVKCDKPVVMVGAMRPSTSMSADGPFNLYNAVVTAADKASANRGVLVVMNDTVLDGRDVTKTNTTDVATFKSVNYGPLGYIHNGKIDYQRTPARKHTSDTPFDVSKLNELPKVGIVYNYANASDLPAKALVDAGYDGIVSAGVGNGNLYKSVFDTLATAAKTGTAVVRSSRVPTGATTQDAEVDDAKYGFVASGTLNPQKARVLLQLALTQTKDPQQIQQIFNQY

EBD-200 = target: T2, EBD-200 (Cavia porcellus, UniProt H0W0T5); details: read-out: EBD-200 ^a; 50 mM Tris-HCl pH 7.5, 200 mM NaCl, 37 °C
T2 construct: gene ASPG
T2 sequence (H0W0T5 1-359): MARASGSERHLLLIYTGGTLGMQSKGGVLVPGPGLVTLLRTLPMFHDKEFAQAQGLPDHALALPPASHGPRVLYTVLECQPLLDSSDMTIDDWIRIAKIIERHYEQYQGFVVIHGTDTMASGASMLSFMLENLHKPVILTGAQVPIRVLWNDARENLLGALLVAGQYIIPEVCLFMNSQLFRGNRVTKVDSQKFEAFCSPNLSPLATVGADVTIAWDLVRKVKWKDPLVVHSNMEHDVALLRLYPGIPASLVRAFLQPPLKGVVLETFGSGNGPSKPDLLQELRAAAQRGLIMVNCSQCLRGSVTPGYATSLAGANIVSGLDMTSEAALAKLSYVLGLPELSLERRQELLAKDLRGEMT
Excerpt: continuous coupled NADH spectrophotometric assay (malic dehydrogenase / glutamic-oxalacetic transaminase) on EBD-200

[1] = substrate: NC(=O)C[C@H](N)C(=O)O; experiment: continuous coupled NADH spectrophotometric assay (malic dehydrogenase / glutamic-oxalacetic transaminase); assay type: biochemical, Escherichia coli; details: 50 mM Tris-HCl pH 7.5, 200 mM NaCl, 37 °C
purified protein = substrate: NC(=O)C[C@H](N)C(=O)O; experiment: purified protein; details: 50 mM Tris-HCl pH 7.5, 200 mM NaCl, 37 °C, in-house preparation, 0.6 % WT contamination, printed as >1.4 mM

## NC(=O)CC[C@H](N)C(=O)O [L-GLN]
E. coli L-ASNase (EcA)
  continuous coupled NADH assay (L-glutamic dehydrogenase); NMR: GLNase activity is easily observed by EcA but not by EBD-200

## NC(=O)C[C@H](N)C(=O)O [L-ASN]
EBD-200
  Km: 41.3 ± 0.7 µM

B1: E. coli L-ASNase (EcA) (Escherichia coli K-12) (protein)
chain: LPNITILATGGTIAGGGDSATKSNYTVGKVGVENLVNAVPQLKDIANVKGEQVVNIGSQDMNDNVWLTLAKKINTDCDKTDGFVITHGTDTMEETAYFLDLTVKCDKPVVMVGAMRPSTSMSADGPFNLYNAVVTAADKASANRGVLVVMNDTVLDGRDVTKTNTTDVATFKSVNYGPLGYIHNGKIDYQRTPARKHTSDTPFDVSKLNELPKVGIVYNYANASDLPAKALVDAGYDGIVSAGVGNGNLYKSVFDTLATAAKTGTAVVRSSRVPTGATTQDAEVDDAKYGFVASGTLNPQKARVLLQLALTQTKDPQQIQQIFNQY
notes: made in cytosol of E. coli C41(DE3) from His6-SUMO-pET14b, His-SUMO tag cut with SUMO protease, gel filtration; family forms tetramers
[1]
  Km: 14 µM
  kcat: 44 s⁻¹

B2: E. coli L-ASNase (EcA) (Escherichia coli K-12; Q81L) (protein)
chain: LPNITILATGGTIAGGGDSATKSNYTVGKVGVENLVNAVPQLKDIANVKGEQVVNIGSLDMNDNVWLTLAKKINTDCDKTDGFVITHGTDTMEETAYFLDLTVKCDKPVVMVGAMRPSTSMSADGPFNLYNAVVTAADKASANRGVLVVMNDTVLDGRDVTKTNTTDVATFKSVNYGPLGYIHNGKIDYQRTPARKHTSDTPFDVSKLNELPKVGIVYNYANASDLPAKALVDAGYDGIVSAGVGNGNLYKSVFDTLATAAKTGTAVVRSSRVPTGATTQDAEVDDAKYGFVASGTLNPQKARVLLQLALTQTKDPQQIQQIFNQY
Purified protein
  Km: 1400 µM
  kcat: 1.3 s⁻¹

Source: publication PMC12177098, “A human-like glutaminase-free asparaginase is highly efficacious in ASNS^low leukemia and solid cancer mouse xenograft models” (Cancer letters, 2024)
